From US20220120736A1, “METHODS AND ASSAYS FOR MODULATING GENE TRANSCRIPTION BY MODULATING CONDENSATES” (Whitehead Institute for Biomedical Research, priority 2018, published 2022) come the findings set out here.

For one data set, the system named is MED1-GFP condensates. As to the kind of experiment: FRAP of MED1-GFP condensates in mESCs. The class given is cell-based, mouse. As to conditions: ectopic expression in mESCs, untreated. How it is done:
ATP depletion: Cells were cultured for 2 hours in glucose-free DMEM (Gibco, 11966025) supplemented with 0.5× B27 supplement and 0.5× N2 supplement followed by incubation with 5 mM 2-deoxy-glucose (Sigma, D6134) and 126 nM Oligomycin (Sigma, 75351) for 2 hours. Cellular ATP levels were measured using a bioluminescence assay (Invitrogen, A22066) following manufacturer's instructions. Cells expressing fluorescently tagged proteins were imaged ever 1 s for 20 s at a 100× objective on the Andor Revolution Spinning Disk Confocal, […] system and Metamorph acquisition software (W.M. Keck Microscopy Facility, MIT). One or two images were pre-bleach and on then approximately 0.5 μm^2 was bleached with the 488 nm laser of the quantifiable laser module (QLM). FRAP was performed on selecting region of interest with 5 pulses of 20 μs each. For FRAP analysis, florescence recovery was measured as fluorescence intensity of photobleached area normalized to the intensity of the unbleached area or the entire nucleus. Fluorescence intensity was measured with FIJI FRAP profiler plugin (code written by Jeff […], adapted from Tony Collins' Macbiophotonics plugins, available here: //worms.zoology.wisc.edu/research/4d/4d.html

Data set [1] can be described thus: In vitro homotypic droplet formation assay. Format: physicochemical. How it is done:
Slides were then imaged on the Andor Revolution Spinning Disk Confocal using a 100× objective.
The CDK8-Mediator samples were purified as described (Meyer et al., 2008) with modifications. Prior to affinity purification, the P0.5M/QFT fraction was concentrated, to 12 mg/mL, by ammonium sulfate precipitation (35%). […] Affinity purification was carried out as described (Meyer et al., 2008), eluted material was loaded onto a 2.2 mL centrifuge tube containing 2 mL 0.15M KCl HEMG (20 mM HEPES, 0.1 mM EDTA, 2 mM MgCl2, 10% glycerol) and centrifuged at 50K RPM for 4 h at 4° C. This served to remove excess free GST-SREBP and to concentrate the CDK8-Mediator in the final fraction. Prior to droplet assays, purified CDK8-Mediator was concentrated using Microcon-30 kDa Centrifugal Filter Unit with Ultracel-30 membrane (Millipore MRCFOR030) to reach ˜300 nM of Mediator complex. Concentrated CDK8-Mediator was added to the droplet assay to a final concentration of ˜200 nM with or without 10 μM indicated GFP-tagged protein. Droplet reactions contained 10% PEG-8000 and 140 mM salt.
Proteins were stored in 10% glycerol, 50 mM Tris-HCl pH 7.5, 500 mM NaCl, 1 mM DTT. Amicon Ultra Centrifugal filters (30K or 50K MWCO, Millipore) were used to concentrate proteins to desired concentrations. […] Droplet assays were performed in 8-tube PCR strip. […]

The target of a further data set is T1, MED1-IDR droplets (Homo sapiens, UniProt Q15648).
T1 construct: pETEC-MED1-IDR-GFP; Sabari et al., 2018; 948-1574; 6xHis (N); made in house; host or cells: E. coli LOBSTR
As to the kind of experiment: In vitro droplet assay, TMR-labeled decapeptides with MED1-IDR-GFP. As to conditions: 10 uM each, 125 mM NaCl, 10% PEG-8000. The class given is biochemical. How it is done: Recombinant GFP or mCherry fusion proteins were concentrated and desalted to an appropriate protein concentration and 125 mM NaCl using Amicon Ultra centrifugal filters (30K MWCO, Millipore). Recombinant proteins were added to solutions at varying concentrations with indicated final salt and 10% PEG-8000 as crowding agent in Droplet Formation Buffer (50 mM Tris-HCl pH 7.5, 10% glycerol, 1 mM DTT). The protein solution was immediately loaded onto a homemade chamber comprising a glass slide with a coverslip attached by two parallel strips of double-sided tape. Slides were then imaged with an Andor confocal microscope with a 150× objective. Unless indicated, images presented are of droplets settled on the glass coverslip. For experiments with fluorescently labeled polypeptides, the indicated decapeptides were synthesized by the Koch Institute/MIT Biopolymers & Proteomics Core Facility with a TMR fluorescent tag. The protein of interest was added Buffer D with 125 mM NaCl and 10% Peg-8000 with the indicated polypeptide and imaged as described above. For FRAP of in vitro droplets 5 pulses of laser at a 50 us dwell time was applied to the droplet, and recovery was imaged on an Andor microscope every is for the indicated time periods. […] One microliter of this concentrated stock was used in a 10 uL droplet formation reaction to achieve a final concentration of 10 uM.

Another data set has as its target T2, MED1-IDR-mCherry (human, UniProt Q15648 948-1574).
T2 construct: Recombinant from E. coli; Lacks the LXXLL motifs; also called mCherry-MED1-IDR
As to the kind of experiment: in vitro droplet assay, 10 uM each, 125 mM NaCl, 10% PEG-8000.

A further data set concerns the target T3, MED1-IDR-GFP (human, UniProt Q15648 948-1574).
T3 construct: Recombinant from E. coli
Kind of data set: in vitro droplet assay with TMR-labeled decapeptide, 125 mM NaCl, 10% PEG-8000.

Another data set deals with HCT116 cells. As to the kind of experiment: FRAP of endogenously tagged mEGFP-β-catenin in HCT116 cells. The class given is cell-based. The settings on record: nuclear puncta, constitutive WNT-activated HCT116 cells. How it is done: FRAP was performed on LSM880 Airyscan microscope with 488 nm laser. Bleaching was performed over a rbleach≈1 um using 100% laser power and images were collected every two seconds. Fluorescence intensity was measured using FIJI. Background intensity was subtracted and values are reported relative to pre-bleaching time points.
Custom MATLAB™ scripts were written to process the intensity data, accounting for background photobleaching and normalization to pre-bleach intensity. Post bleach FRAP recovery data was averaged over 9 replicates for each cell-line and condition.

Where no end group is shown, it is not given here.

In the case of “MED1-GFP: full-length human MED1 fused to mEGFP, ectopically expressed in mESCs”, the apparent diffusion coefficient with MED1-GFP condensates is listed as 0.36±0.13 μm2/s.
Take “GCN4: purified recombinant yeast GCN4-GFP”: the “concentration at which micron-sized droplets form alone” value in data set [1] (125 mM NaCl, 10% PEG-8000) is 40 µM.
Consider “Poly-E: TMR labeled glutamic acid decapeptide”, for which the “incorporation of TMR labeled decapeptide into MED1-IDR droplets” value was “incorporated into MED1-IDR droplets” with MED1-IDR droplets and “concentrated within” in the data set with MED1-IDR droplets (listed as glutamic acid peptides).
Turning to “Poly-P: TMR labeled proline decapeptide (PPPPPPPPPP; also: TMR labeled, site not given here)”, the “incorporation of TMR labeled decapeptide into MED1-IDR droplets” value with MED1-IDR droplets is on record as “not incorporated into MED1-IDR droplets”.

B1: MED1-IDR: recombinant GFP fusion of the MED1 intrinsically disordered region (948-1574) (protein)
chain: EHHSGSQGPLLTTGDLGKEKTQKRVKEGNGTSNSTLSGPGLDSKPGKRSRTPSNDGKSKDKPPKRKKADTEGKSPSHSSSNRPFTPPTSTGGSKSPGSAGRSQTPPGVATPPIPKITIQIPKGTVMVGKPSSHSQYTSSGSVSSSGSKSHHSHSSSSSSSASTSGKMKSSKSEGSSSSKLSSSMYSSQGSSGSSQSKNSSQSGGKPGSSPITKHGLSSGSSSTKMKPQGKPSSLMNPSLSKPNISPSHSRPPGGSDKLASPMKPVPGTPPSSKAKSPISSGSGGSHMSGTSSSSGMKSSSGLGSSGSLSQKTPPSSNSCTASSSSFSSSGSSMSSSQNQHGSSKGKSPSRNKKPSLTAVIDKLKHGVVTSGPGGEDPLDGQMGVSTNSSSHPMSSKHNMSGGEFQGKREKSDKDKSKVSTSGSSVDSSKKTSESKNVGSTGVAKIIISKHDGGSPSIKAKVTLQKPGESSGEGLRPQMASSKNYGSPLISGSTPKHERGSPSHSKSPAYTPQNLDSESESGSSIAEKSYQNSPSSDDGIRPLPEYSTEKHKKHKKEKKKVKDKDRDRDRDKDRDKKKSHSIKPESWSKSPISSDQSLSMTSNTILSADRPSRLSPDFMIGEEDDDLM
modifications: left off: large carriers; small tags and cut ends
In the case of B1, the “lowest concentration tested, at which droplets were observed” value in data set [1] (droplet formation buffer with 10% PEG-8000, range tested 0.6 to 20 μM) stood at 0.6 µM.

B2: ER-GFP (receptor, not shown: large carriers; small tags and cut ends)
chain: MTMTLHTKASGMALLHQIQGNELEPLNRPQLKIPLERPLGEVYLDSSKPAVYNYPEGAAYEFNAAAAANAQVYGQTGLPYGPGSEAAAFGSNGLGGFPPLNSVSPSPLMLLHPPPQLSPFLQPHGQQVPYYLENEPSGYTVREAGPPAFYRPNSDNRRQGGRERLASTNDKGSMAMESAKETRYCAVCNDYASGYHYGVWSCEGCKAFFKRSIQGHNDYMCPATNQCTIDKNRRKSCQACRLRKCYEVGMMKGGIRKDRRGGRMLKHKRQRDDGEGRGEVGSAGDMRAANLWPSPLMIKRSKKNSLALSLTADQMVSALLDAEPPILYSEYDPTRPFSEASMMGLLTNLADRELVHMINWAKRVPGFVDLTLHDQVHLLECAWLEILMIGLVWRSMEHPGKLLFAPNLLLDRNQGKCVEGMVEIFDMLLATSSRFRMMNLQGEEFVCLKSIILLNSGVYTFLSSTLKSLEEKDHIHRVLDKITDTLIHLMAKAGLTLQQQHQRLAQLLLILSHIRHMSNKGMEHLYSMKCKNVVPLYDLLLEMLDAHRLHAPTSRGGASVEETDQSHLATAGSTSSHSLQKYYITGEAEGFPATV
notes: Tested without ligand, with estrogen (beta-estradiol) and with tamoxifen (4-hydroxytamoxifen); also called estrogen receptor; GFP labeled ER
On to B2, for which the binding result in the data set with MED1-IDR-mCherry is “binds”.
For the molecule PPPPPPPPPP (also: TMR fluorescent tag, site not given here, also called proline decapeptide) [TMR-Poly-P Peptide], the binding result with MED1-IDR-GFP is reported as “no binding (tested: 10 uM)”.

B3: β-catenin: mEGFP-tagged β-catenin at the endogenous locus in HCT116 cells (protein)
chain: ATQADLMELDMAMEPDRKAAVSHWQQQSYLDSGIHSGATTTAPSLSGKGNPEEEDVDTSQVLYEWEQGFSQSFTQEQVADIDGQYAMTRAQRVRAAMFPETLDEGMQIPSTQFDAAHPTNVQRLAEPSQMLKHAVVNLINYQDDAELATRAIPELTKLLNDEDQVVVNKAAVMVHQLSKKEASRHAIMRSPQMVSAIVRTMQNTNDVETARCTAGTLHNLSHHREGLLAIFKSGGIPALVKMLGSPVDSVLFYAITTLHNLLLHQEGAKMAVRLAGGLQKMVALLNKTNVKFLAITTDCLQILAYGNQESKLIILASGGPQALVNIMRTYTYEKLLWTTSRVLKVLSVCSSNKPAIVEAGGMQALGLHLTDPSQRLVQNCLWTLRNLSDAATKQEGMEGLLGTLVQLLGSDDINVVTCAAGILSNLTCNNYKNKMMVCQVGGIEALVRTVLRAGDREDITEPAICALRHLTSRHQEAEMAQNAVRLHYGLPVVVKLLHPPSHWPLIKATVGLIRNLALCPANHAPLREQGAIPRLVQLLVRAHQDTQRRTSMGGTQQQFVEGVRMEEIVEGCTGALHILARDVHNRIVIRGLNTIPLFVQLLYSPIENIQRVAAGVLCELAQDKEAAEAIEAEGATAPLTELLHSRNEGVATYAAAVLFRMSEDKPQDYKKRLSVELTSSLFRTEPMAWNETADLGLDIGAQGEPLGYRQDDPSYRSFHSGGYGQDALGMDPMMEHEMGGHHPGADYPVDGLPDLGHAQDLMDGLPPGDSNQLAWFDTDL
modifications: left off: large carriers; small tags and cut ends
notes: mEGFP-tagged β-catenin at the endogenous locus in HCT116 cells
B3: the “approximate apparent diffusion coefficient” value in the data set on HCT116 cells is roughly 0.004±0.003 μm^2/s.
